# Test results reported in patent US20240325529A1, “MEDICAMENT FOR TREATMENT AND/OR PREVENTION OF CANCER” (TORAY INDUSTRIES, INC., priority 2021, published 2024).
# T1: human CAPRIN-1 protein on cell membrane surfaces of human cancer cells (human, UniProt Q14444 2-709)
# T1 construct: whole, on cells; Endogenous protein on cancer cells, stained without permeation of the cell membrane
# T1 sequence (looked up): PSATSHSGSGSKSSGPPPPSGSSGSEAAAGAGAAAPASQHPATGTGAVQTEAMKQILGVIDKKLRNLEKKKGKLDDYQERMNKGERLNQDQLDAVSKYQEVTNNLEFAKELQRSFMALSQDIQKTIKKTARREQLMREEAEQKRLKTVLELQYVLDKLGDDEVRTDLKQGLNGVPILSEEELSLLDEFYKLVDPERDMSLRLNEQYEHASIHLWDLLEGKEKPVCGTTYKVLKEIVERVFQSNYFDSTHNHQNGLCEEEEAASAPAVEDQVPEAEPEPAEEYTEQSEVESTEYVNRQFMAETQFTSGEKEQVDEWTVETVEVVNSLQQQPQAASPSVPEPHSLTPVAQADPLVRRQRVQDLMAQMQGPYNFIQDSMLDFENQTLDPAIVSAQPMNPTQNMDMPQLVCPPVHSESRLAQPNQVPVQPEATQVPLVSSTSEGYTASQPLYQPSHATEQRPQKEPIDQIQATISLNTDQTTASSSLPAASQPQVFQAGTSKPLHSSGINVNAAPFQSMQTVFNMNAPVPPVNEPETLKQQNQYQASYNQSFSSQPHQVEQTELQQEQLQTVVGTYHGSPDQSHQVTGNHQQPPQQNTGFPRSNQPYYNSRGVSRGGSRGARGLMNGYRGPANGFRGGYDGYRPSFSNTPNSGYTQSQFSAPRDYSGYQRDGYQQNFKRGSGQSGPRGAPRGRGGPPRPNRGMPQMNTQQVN
# Target: T1, human CAPRIN-1 protein on cell membrane …
# Assay: flow cytometry on cancer cells expressing CAPRIN-1
row,binding result,Binder
1,binds,"anti-CAPRIN-1 antibody (b) (antibody, V domains shown) VH: EQSLVESGGGLVQPGGSLRLSCAASGFSLSSHSLGWVRQAPGKGLEWIGDIRSGGSAYYANWAKGRFTISRDNSKNTLYLQMNSLRAEDTAVYYCTRTNGPSDLTNRLDLWGQGTLVTVSS VL: QVLTQSPSSLSASVGDRVTINCQASQSLYNNENLAWFQQKPGKVPKRLIYGASTLASGVSSRFSGSGSGTEFTLTISSLQCEDFAIYYCLGEFSCGSADCFAFGGGTKVEIK"
2,binds,"anti-CAPRIN-1 antibody (ak) (antibody, V domains shown) VH: EVQLVESGGGLVQPGGSLRLSCAASGFSLSSHSLGWVRQAPGKGLEWIGDIRSGGSAYYANWAKGRFTISRDNSKNTLYLQMNSLRAEDTAVYFCTRTNGPSDLTNRLDLWGQGTLVTVSS VL: EQVLTQSPSSLSASVGDRVTINCQASQSLYNNENLAWFQQKPGKVPKRLIYGASTLASGVSSRFSGSGSGTEFTLTISNLQPEDFAIYYCLGEFSCGSADCFAFGGGTKVEIK"
3,binds,"anti-CAPRIN-1 antibody (aj) (antibody, V domains shown) VH: EVQLVESGGGLVQPGGSLRLSCAASGFSLSSHSLGWVRQAPGKGLEWIGDIRSGGSAYYANWAKGRFTISRDNSKNTLYLQMNSLRAEDTAVYYCTRTNGPSDLTNRLDLWGQGTLVTVSS VL: EIVLTQSPSSLSASVGDRVTINCQASQSLYNNENLAWFQQKPGKVPKRLIYGASTLASGVSSRFSGSGSGTEFTLTISNLQPEDFATYYCLGEFSCGSADCFAFGGGTKVEIK"
4,binds,"anti-CAPRIN-1 antibody (ai) (antibody, V domains shown) VH: EVQLVESGGGLVQPGGSLRLSCAASGFSLSSHSLGWVRQAPGKGLEWIGDIRSGGSAYYANWAKGRFTISRDNSKNTLYLQMNSLRAEDTAVYFCTRTNGPSDLTNRLDLWGQGTLVTVSS VL: EIVLTQSPSSLSASVGDRVTINCQASQSLYNNENLAWFQQKPGKVPKRLIYGASTLASGVSSRFSGSGSGTEFTLTISNLQPEDFATYYCLGEFSCGSADCFAFGGGTKVEIK"
5,binds,"anti-CAPRIN-1 antibody (ag) (antibody, V domains shown) VH: EVQLVESGGGLVQPGGSLRLSCAASGFSLSSHSLGWVRQAPGKGLEWIGDIRSGGSAYYANWAKGRFTISRDNSKNTLYLQMNSLRAEDTAVYFCTRTNGPSDLTNRLDLWGQGTLVTVSS VL: QVLTQSPSSLSASVGDRVTINCQASQSLYNNENLAWFQQKPGKVPKRLIYGASTLASGVSSRFSGSGSGTEFTLTISSLQCEDFAIYYCLGEFSCGSADCFAFGGGTKVEIK"
6,binds,"anti-CAPRIN-1 antibody (j) (antibody, V domains shown) VH: DAELVKPGASVKISCKASGYTFTDHSIHWVQQKPEQGLEWIGYISPGNGNIKYNEKFKGKATLTADKSSSTAYMQLNSLTSEDSAVYFCKRSLGRGGPYYFDYWGQGTTVTVSS VL: DIVLTQAAPSLPVTPGESVSISCRSSKSLLHSNGNTYLYWFLQRPGQSPQLLIYRMSNLASGVPDRFSGSGSGTAFTLRISRVEAEDVGVYYCMQHREYPVTFGSGPN"

# The remaining lines, values behind:
row,Binder,binding result
1,"anti-CAPRIN-1 antibody (i) (antibody, V domains shown) VH: GAELVRSGASVKMSCKASGYSFTDYNMYWVKQTPGQGLEWIGYIYPGNGGTNYNQKFKGKATLTADTSSSTAYMQISSLTSEDSAVYFCARDYDDGGYAMDYWGQGTTVTVSS VL: DIQMTQSPASLSASVGETVTITCRASGNIHNYLTWYQQKQGKSPQLLVYNAKTLADGVPSRFSGSGSGTQYSLKINRLQPEDFGSYYCQHFWNIPWTFGGGTKLNSR",binds
2,"anti-CAPRIN-1 antibody (e) (antibody, V domains shown) VH: AVTLDESGGGLQTPGGALSLVCKASGFTFSGYDMLWVRQAPGKGLEWVAGIGSTGGGTDYGAAVKGRATISRDNGQSTVRLQLNNLRAEDTATYYCAKVAGGCNSGYCRDSPGSIDAWGHGTEVIVS VL: AVTQQPASVSANPGETVKITCSGGGSRNYYGWYQQKSPGSVPVTVIYYDDQRPSNIPSRFSGALSGSTSTLTITGVQADDEAVYFCGSADSNTYEGSFGAGTTLTVL",binds
3,"anti-CAPRIN-1 antibody (c) (antibody, V domains shown) VH: AVTLDESGGGLQTPGGGLSLVCKASGFTFSSFDMGWVRQAPGKGLEFVAQINDAGSRTWYATAVKGRATISRDNGQTTVRLQLNNLRAEDTGTYYCTRGSGYVGAGAIDAWGHGTEVIVS VL: AALTQPSSVSANPGETVKITCSGGSGYYGWYQQQKSPGSAPVTVIYQNDKRPSDIPSRFSGSGSGSTNTLTITGVQAEDEAVYFCGRYDSTDSGIFGAGTTLTVL",binds
4,"anti-CAPRIN-1 antibody (d) (antibody, V domains shown) VH: QSLEESGGDLVKPGASLTLTCTASGFSFSGSYYMSWVRQAPGKGLEWIAYIYIGDGVTAYANWAKGRFTISKASSTTVTLQMTSLTAADTATYFCARGNKLWGPGTLVTVSS VL: DVVMTQTPASVEAAVGGTVTIKCQASQSISSYLAWYQQKPGQPPKRLIYDASNLDSGVPSRFKGSGSGTDFTITISDLECADAATYYCQCTAVSSATIYGNAFGGGTEVVVK",binds
5,"anti-CAPRIN-1 antibody (a) (antibody, V domains shown) VH: AVTLDESGGGLQMSRGGLSLVCKASGFDFSSYQMNWIRQAPGKGLEFVAAINKFGNSTGHGAAVKGRVTISRDNGQSTVRLQLNNLRAEDTAIYFCTKHAYGYCGSGTWCAAGEIDAWGHGTEVIVSS VL: QAASTQPSSVSANPGETVEITCSGGGSYSYGWFQQKSPGSAPVTVIYYNNKRPSDIPSRFSGSKSGSTGTLTITGVQADDEAVYYCGSGDSTDTAVFGAGTTLTVLG",binds
6,"anti-CAPRIN-1 antibody (o) (antibody, V domains shown) VH: EVQLHQFGAELVKPGASVKISCKASGYTFTDYNMDWVKQSHGKSLEWIGDINPNYDSTSYNQKFKGKATLTVDKSSSTAYMELRSLTSEDTAVYYCARSRSYDYEGFAYWGQGTLVTVSA VL: DIQMTQSPASLSASVGETVTITCRASGNIHNYLAWYQQKQGKSPQLLVYNAKTLADGVPSRFSGSGSGTQYSLKINSLQPEDFGSYYCQHFWSTLTFGAGTKLELKR",binds
7,"anti-CAPRIN-1 antibody (af) (antibody, V domains shown) VH: EVQLVESGGGLVQPGGSLRLSCAASGFSLSSHSLGWVRQAPGKGLEWIGDIRSGGSAYYANWAKGRFTISRDNSKNTLYLQMNSLRAEDTAVYYCTRTNGPSDLTNRLDLWGQGTLVTVSS VL: QVLTQSPSSLSASVGDRVTINCQASQSLYNNENLAWFQQKPGKVPKRLIYGASTLASGVSSRFSGSGSGTEFTLTISSLQCEDFAIYYCLGEFSCGSADCFAFGGGTKVEIK",binds
8,"anti-CAPRIN-1 antibody (ah) (antibody, V domains shown) VH: EVQLVESGGGLVQPGGSLRLSCAASGFSLSSHSLGWVRQAPGKGLEWIGDIRSGGSAYYANWAKGRFTISRDNSKNTLYLQMNSLRAEDTAVYYCTRTNGPSDLTNRLDLWGQGTLVTVSS VL: EQVLTQSPSSLSASVGDRVTINCQASQSLYNNENLAWFQQKPGKVPKRLIYGASTLASGVSSRFSGSGSGTEFTLTISNLQPEDFAIYYCLGEFSCGSADCFAFGGGTKVEIK",binds
